According to publication PMC4490372, “Architecture of TFIIIC and its role in RNA polymerase III pre-initiation complex assembly” (Nature Communications, 2015):

B1: τ131 (123–566), TPR array, wild type [S. cerevisiae] / τ138 (641–693), τ131-Interaction Region (τIR) [S. cerevisiae] (parent complex)
chain 1: VLDPEVAQLLSQANEAFVRNDLQVAERLFNEVIKKDARNFAAYETLGDIYQLQGRLNDCCNSWFLAAHLNASDWEFWKIVAILSADLDHVRQAIYCFSRVISLNPMEWESIYRRSMLYKKTGQLARALDGFQRLYMYNPYDANILRELAILYVDYDRIEDSIELYMKVFNANVERREAILAALENALDSSDEESAAEGEDADEKEPLEQDEDRQMFPDINWKKIDAKYKCIPFDWSSLNILAELFLKLAVSEVDGIKTIKKCARWIQRRESQTFWDHVPDDSEFDNRRFKNSTFDSLLAAEKEKSYNIPIDIRVRLGLLRLNTDNLVEALNHFQCLYDETFSDVADLYFEAATALTRAEKYKEAIDFFTPLLSLEEWRTTDVFKPLARCYKEIESYETAKEFYELAIKSEPDDLDIRVSLAEVYYRLNDPETFKHMLVDVVEMR
chain 2: SKKATFTDVIHDTEIYFFDQTEKNRFHRGKKSVERIRKFQNRQKNAKIKASDD
B2: τ131 (123–566), TPR array, wild type [S. cerevisiae] / τ138 (546–693), eWH-τIR [S. cerevisiae] (parent complex)
chain 1: B1 chain 1
chain 2: SARSLRSLQRQRAILKVMNTIGGVAYLREQFYESVSKYMGSTTTLDKKTVRGDVDLMVESEKLGARTEPVSGRKIIFLPTVGEDAIQRYILKEKDSKKATFTDVIHDTEIYFFDQTEKNRFHRGKKSVERIRKFQNRQKNAKIKASDD

Variants of: B1
Test: ITC; parent: 80 nM

Kd	Variant
89 nM	chain 1 VLDPEVAQLLSQANEAFVRNDLQVAERLFNEVIKKDARNFAAYETLGDIYQLQGRLNDCCNSWFLAAHLNASDWEFWKIVAILSADLDHVRQAIYCFSRVISLNPMEWESIYRRSMLYKKTGQLARALDGFQRLYMYNPYDANILRELAILYVDYDRIEDSIELYMKVFNANVERREAILAALENALDSSDEESAAEGEDADEKEPLEQDEDRQMFPDINWKKIDAKYKCIPFDWSSLNILAELFLKLAVSEVDGIKTIKKCARWIQRRESQTFWDHVPDDSEFDNRRFKNSTFDSLLAAEKEKSYNIPIDIRVRLGLLRLNTDNLVEALNHFQCLYDETFSDVADLYFEAATALTRAEKYKEAIDFFTPLLSLKEWRTTDVFKPLARCYKEIESYETAKEFYELAIKSEPDDLDIRVSLAEVYYRLNDPETFKHMLVDVVEMR [chain 1 E375K]
833 nM	chain 1 VLDPEVAQLLSQANEAFVRNDLQVAERLFNEVIKKDARNFAAYETLGDIYQLQGRLNDCCNSWFLAAHLNASDWEFWKIVAILSADLDHVRQAIYCFSRVISLNPMEWESIYRRSMLYKKTGQLARALDGFQRLYMYNPYDANILRELAILYVDYDRIEDSIELYMKVFNANVERREAILAALENALDSSDEESAAEGEDADEKEPLEQDEDRQMFPDINWKKIDAKYKCIPFDWSSLNILAELFLKLAVSEVDGIKTIKKCARWIQRRESQTFWDHVPDDSEFDNRRFKNSTFDSLLAAEKEKSYNIPIDIRVRLGLLRLNTDNLVEALNHFQCLYDETFSDVADLYFKAATALTRAEKYKEAIDFFTPLLSLEEWRTTDVFKPLARCYKEIESYETAKEFYELAIKSEPDDLDIRVSLAEVYYRLNDPETFKHMLVDVVEMR [chain 1 E350K]
833 nM	chain 1 VLDPEVAQLLSQANEAFVRNDLQVAERLFNEVIKKDARNFAAYETLGDIYQLQGRLNDCCNSWFLAAHLNASDWEFWKIVAILSADLDHVRQAIYCFSRVISLNPMEWESIYRRSMLYKKTGQLARALDGFQRLYMYNPYDANILRELAILYVDYDRIEDSIELYMKVFNANVERREAILAALENALDSSDEESAAEGEDADEKEPLEQDEDRQMFPDINWKKIDAKYKCIPFDWSSLNILAELFLKLAVSEVDGIKTIKKCARWIQRRESQTFWDHVPDDSEFDNRRFKNSTFDSLLAAEKEKSYNIPIDIRVRLGLLRLNTDNLVEALNHFQCLYDETFSDVADLYFEAATALTRAEKYKEAIDFFTPLLSLEKWRTTDVFKPLARCYKEIESYETAKEFYELAIKSEPDDLDIRVSLAEVYYRLNDPETFKHMLVDVVEMR [chain 1 E376K]

Variants of: B2
Test: ITC; parent: 100 nM

Kd	Variant
415 nM	chain 1 VLDPEVAQLLSQANEAFVRNDLQVAERLFNEVIKKDARNFAAYETLGDIYQLQGRLNDCCNSWFLAAHLNASDWEFWKIVAILSADLDHVRQAIYCFSRVISLNPMEWESIYRRSMLYKKTGQLARALDGFQRLYMYNPYDANILRELAILYVDYDRIEDSIELYMKVFNANVERREAILAALENALDSSDEESAAEGEDADEKEPLEQDEDRQMFPDINWKKIDAKYKCIPFDWSSLNILAELFLKLAVSEVDGIKTIKKCARWIQRRESQTFWDHVPDDSEFDNRRFKNSTFDSLLAAEKEKSYNIPIDIRVRLGLLRLNTDNLVEALNHFQCLYDETFSDVADLYFKAATALTRAEKYKEAIDFFTPLLSLEEWRTTDVFKPLARCYKEIESYETAKEFYELAIKSEPDDLDIRVSLAEVYYRLNDPETFKHMLVDVVEMR [chain 1 E350K]
971 nM	chain 1 VLDPEVAQLLSQANEAFVRNDLQVAERLFNEVIKKDARNFAAYETLGDIYQLQGRLNDCCNSWFLAAHLNASDWEFWKIVAILSADLDHVRQAIYCFSRVISLNPMEWESIYRRSMLYKKTGQLARALDGFQRLYMYNPYDANILRELAILYVDYDRIEDSIELYMKVFNANVERREAILAALENALDSSDEESAAEGEDADEKEPLEQDEDRQMFPDINWKKIDAKYKCIPFDWSSLNILAELFLKLAVSEVDGIKTIKKCARWIQRRESQTFWDHVPDDSEFDNRRFKNSTFDSLLAAEKEKSYNIPIDIRVRLGLLRLNTDNLVEALNHFQCLYDETFSDVADLYFEAATALTRAEKYKEAIDFFTPLLSLEKWRTTDVFKPLARCYKEIESYETAKEFYELAIKSEPDDLDIRVSLAEVYYRLNDPETFKHMLVDVVEMR [chain 1 E376K]
